Earlier results as cited in publication PMC4526918.
pKd: −log10 of the molar value.

Biological target: HAESA-LIKE2 (HSL2) (Arabidopsis thaliana) (UniProt C0LGX3)
Chain of UniProt C0LGX3 (C0LGX3 29-632): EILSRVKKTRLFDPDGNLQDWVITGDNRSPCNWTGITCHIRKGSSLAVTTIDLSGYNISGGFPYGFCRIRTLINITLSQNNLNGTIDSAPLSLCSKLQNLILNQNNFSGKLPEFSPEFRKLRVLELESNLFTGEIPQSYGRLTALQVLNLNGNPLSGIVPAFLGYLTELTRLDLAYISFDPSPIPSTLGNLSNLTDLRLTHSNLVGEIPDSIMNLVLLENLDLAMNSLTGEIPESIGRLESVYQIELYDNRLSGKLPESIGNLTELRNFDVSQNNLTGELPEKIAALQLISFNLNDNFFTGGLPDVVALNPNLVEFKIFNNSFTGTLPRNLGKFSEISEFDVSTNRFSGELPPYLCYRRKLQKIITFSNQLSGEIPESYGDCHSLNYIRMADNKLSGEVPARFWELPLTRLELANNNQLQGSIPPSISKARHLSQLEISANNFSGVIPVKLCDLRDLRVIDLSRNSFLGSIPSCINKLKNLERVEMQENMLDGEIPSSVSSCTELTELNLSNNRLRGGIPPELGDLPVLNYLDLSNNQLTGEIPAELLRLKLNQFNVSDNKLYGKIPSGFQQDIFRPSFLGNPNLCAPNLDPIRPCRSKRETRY

IDA peptide (IDAp) (from UniProt Q8LAD7)
pKd: 7.70
